Source: PMC4815982

Target: AROS (UniProt Q86WX3)
Assay: Flag-SIRT1 IP, HA-AROS immunoblot
Settings: reference: wild type, Adriamycin-treated; sites S682

SIRT1 (from UniProt Q96EB6) S682A, Adriamycin-treated
binding against the reference: stronger
